Results: patent US20090060916A1 (published 2009)

T1: human IL-4 (human, UniProt P05112 25-153, biotinylated in the receptor binding assay and on the Biacore chip)
T1 construct: also called interleukin-4; biotinylated IL-4
T1 sequence (looked up): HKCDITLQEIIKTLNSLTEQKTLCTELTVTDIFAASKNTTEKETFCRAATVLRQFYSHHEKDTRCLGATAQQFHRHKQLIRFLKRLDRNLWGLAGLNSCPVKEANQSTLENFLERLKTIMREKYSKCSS


Experiments:
human IL-13 = target: T2, human IL-13 (human, UniProt P35225 35-146, biotinylated on the Biacore chip); assay: Dom10 RBA (IL-13 sandwich ELISA per paragraph 471)
T2 construct: also called hIL-13; recombinant human IL-13
Description: A MAXISORP™ plate (high protein binding ELISA plate, Nunc, Denmark) was coated overnight with 2.5 μg/ml coating antibody (Module Set, Bender MedSystems, Vienna, Austria), then washed once with 0.05% (v/v) Tween 20 in PBS before blocking with 0.5% (w/v) BSA 0.05% (v/v) Tween 20 in PBS. […] The plate was then incubated with TMB substrate (KPL, Gaithersburg, USA), and the reaction was stopped by the addition of HCl and the absorbance read at 450 nm.

human IL-4 = target: T1, human IL-4; assay: DOM9 RBA (IL-4 RBA)
From the text: The wells were washed three times with 0.1% (v/v) Tween 20 in PBS, followed by three washes with PBS, before blocking with 2% (w/v) BSA in PBS. […] The reaction was stopped by the addition of HCl and the absorbance read at 450 nm.

T2 sequence (P35225 35-146 limits assumed): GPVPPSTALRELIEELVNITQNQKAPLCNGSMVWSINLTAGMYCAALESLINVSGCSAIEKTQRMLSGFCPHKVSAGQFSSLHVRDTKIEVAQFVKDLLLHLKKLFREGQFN

EC50 (human IL-13)	IC50 (human IL-4)	Binder
185 nM	2.25 nM	DOM10-273-ASTKGPS-DOM9-155-78 (bispecific antibody, in-line fusion, from pDOM5) EVQLLESGGGLVQPGGSLRLSCAASGFTFELEEMDWVRQAPGKGLEWVSSISGSGGSTYYADSVKGRFTISRDNSKNTLYLQMNSLRAEDTAVYYCAKAYTGFDYWGQGTLVTVSSASTKGPSDIQMTQSPSSLSASVGDRVTITCRASRHIGDWLHWYQQKPGKAPKLLIAWASTLDSGVPSRFSGSGSGTDFTLTISSLQPEDFATYYCLQEGWGPPTFGQGTKVEIKR
4580 nM	2.75 nM	DOM9-112-210-ASTKGPS-DOM10-224 (bispecific antibody, in-line fusion, from pDOM5) EVQLLESGGGLVQPGGSLRLSCAASGFTFRNFGMGWVRQAPGKGLEWVSWIISSGTETYYADSVKGRFTISRDNSKNTLYLQMNSLRAEDTAVYYCAKSLGRFDYWGQGTLVTVSSASTKGPSDIQMTQSPSSLSASVGDRVTITCRASPNIAVDLAWYQQKPGKAPKLLIRGVSRLQSGVPSRFSGSGSGTDFTLTISSLQPEDFATYYCRQGAMGSYTFGQGTKVEIKR
4550 nM	10.5 nM	DOM9-112-210-ASTKGPS-DOM10-273 (bispecific antibody, in-line fusion, from pDOM5) EVQLLESGGGLVQPGGSLRLSCAASGFTFRNFGMGWVRQAPGKGLEWVSWIISSGTETYYADSVKGRFTISRDNSKNTLYLQMNSLRAEDTAVYYCAKSLGRFDYWGQGTLVTVSSASTKGPSEVQLLESGGGLVQPGGSLRLSCAASGFTFELEEMDWVRQAPGKGLEWVSSISGSGGSTYYADSVKGRFTISRDNSKNTLYLQMNSLRAEDTAVYYCAKAYTGFDYWGQGTLVTVSS
4380 nM	11.7 nM	DOM9-112-210-ASTKGPS-DOM10-277 (bispecific antibody, in-line fusion, from pDOM5) EVQLLESGGGLVQPGGSLRLSCAASGFTFRNFGMGWVRQAPGKGLEWVSWIISSGTETYYADSVKGRFTISRDNSKNTLYLQMNSLRAEDTAVYYCAKSLGRFDYWGQGTLVTVSSASTKGPSEVQLLESGGGLVQPGGSLRLSCAASGFTFSSYEMDWVRQAPGKGLEWVSTISADGVTTYYADSVKGRFTISRDNSKNTLYLQMNSLRAEDTAVYYCAKAFDAFDYWGQGTLVTVSS
34400 nM	7.27 nM	DOM9-112-210-ASTKGPS-DOM10-416 (bispecific antibody, in-line fusion, from pDOM5) EVQLLESGGGLVQPGGSLRLSCAASGFTFRNFGMGWVRQAPGKGLEWVSWIISSGTETYYADSVKGRFTISRDNSKNTLYLQMNSLRAEDTAVYYCAKSLGRFDYWGQGTLVTVSSASTKGPSEVQLLESGGGLVQPGGSLRLSCAASGFTFKGSEMDWVRQAPGKGLEWVSTISADGRETYYADSVKGRFTISRDNSKNTLYLQMNSLRAEDTAVYYCAKSYTSFDYWGQGTLVTVSS
1150 nM	4.29 nM	DOM9-112-210-ASTKGPS-DOM10-213 (bispecific antibody, in-line fusion, from pDOM5) EVQLLESGGGLVQPGGSLRLSCAASGFTFRNFGMGWVRQAPGKGLEWVSWIISSGTETYYADSVKGRFTISRDNSKNTLYLQMNSLRAEDTAVYYCAKSLGRFDYWGQGTLVTVSSASTKGPSDIQMTQSPSSLSASVGDRVTITCRASQAIPWGLNWYQQKPGKAPKLLIYDVSSLQSGVPSRFSGSGSGTDFTLTISSLQPEDFATYYCQQDIHIPMTFGQGTKVEIKR
4240 nM	8.18 nM	DOM10-208-TVAAPS-DOM9-155-78 (bispecific antibody, in-line fusion, from pDOM5) DIQMTQSPSSLSASVGDRVTITCRASSPITDGLAWYQQKPGKAPKLLIDTGSRLQSGVPSRFSGSGSGTDFTLTISSLQPEDFATYYCRQGAMGSYTFGQGTKVEIKRTVAAPSDIQMTQSPSSLSASVGDRVTITCRASRHIGDWLHWYQQKPGKAPKLLIAWASTLDSGVPSRFSGSGSGTDFTLTISSLQPEDFATYYCLQEGWGPPTFGQGTKVEIKR
37.2 nM	8.6 nM	DOM10-270-TVAAPS-DOM9-155-78 (bispecific antibody, in-line fusion, from pDOM5) DIQMTQSPSSLSASVGDRVTITCRASSVILNELHWYQQKPGKAPKLLISAVSRLQSGVPSRFSGSGSGTDFTLTISSLQPEDFATYYCLQTFWGPYTFGQGTKVEIKRTVAAPSDIQMTQSPSSLSASVGDRVTITCRASRHIGDWLHWYQQKPGKAPKLLIAWASTLDSGVPSRFSGSGSGTDFTLTISSLQPEDFATYYCLQEGWGPPTFGQGTKVEIKR
